Data as given in patent publication US20170119874A1 (INSTITUTE FOR RESEARCH IN BIOMEDICINE, published 2017).

T1: pUL128pUL130pUL131 (HEK293T cells transfected with the HCMV genes) (HCMV, UniProt P16837 1-171; P16772 1-214; F5HET4 19-129)
T1 sequence (looked up) 1: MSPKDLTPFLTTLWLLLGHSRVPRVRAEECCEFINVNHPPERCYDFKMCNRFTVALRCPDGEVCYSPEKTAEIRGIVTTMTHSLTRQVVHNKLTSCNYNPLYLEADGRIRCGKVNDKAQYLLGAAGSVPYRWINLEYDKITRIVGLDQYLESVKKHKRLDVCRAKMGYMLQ
T1 sequence (looked up) 2: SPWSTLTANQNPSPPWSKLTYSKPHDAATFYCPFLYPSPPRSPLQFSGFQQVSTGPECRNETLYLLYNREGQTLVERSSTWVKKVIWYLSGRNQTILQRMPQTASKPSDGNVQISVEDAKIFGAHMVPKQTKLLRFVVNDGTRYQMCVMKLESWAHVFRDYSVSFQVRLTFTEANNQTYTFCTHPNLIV
T1 sequence (looked up) 3: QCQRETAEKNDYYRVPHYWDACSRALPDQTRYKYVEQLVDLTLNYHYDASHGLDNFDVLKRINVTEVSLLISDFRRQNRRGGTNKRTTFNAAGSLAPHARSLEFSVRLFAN

T2: pUL128 (HEK293T cells transfected with the HCMV gene) (HCMV, UniProt P16837 1-171, limits assumed)
T2 sequence (looked up): T1 sequence (looked up) 1

T3: pUL130pUL131 (HEK293T cells transfected with the HCMV genes) (HCMV, UniProt P16772 1-214; F5HET4 19-129)
T3 sequence (looked up) 1: T1 sequence (looked up) 2
T3 sequence (looked up) 2: T1 sequence (looked up) 3

T4: gHgLpUL128pUL130 (HEK293T cells transfected with the HCMV genes) (HCMV, UniProt P12824 24-743; P16832 31-278; P16837 1-171; P16772 1-214)
T4 sequence (looked up) 1: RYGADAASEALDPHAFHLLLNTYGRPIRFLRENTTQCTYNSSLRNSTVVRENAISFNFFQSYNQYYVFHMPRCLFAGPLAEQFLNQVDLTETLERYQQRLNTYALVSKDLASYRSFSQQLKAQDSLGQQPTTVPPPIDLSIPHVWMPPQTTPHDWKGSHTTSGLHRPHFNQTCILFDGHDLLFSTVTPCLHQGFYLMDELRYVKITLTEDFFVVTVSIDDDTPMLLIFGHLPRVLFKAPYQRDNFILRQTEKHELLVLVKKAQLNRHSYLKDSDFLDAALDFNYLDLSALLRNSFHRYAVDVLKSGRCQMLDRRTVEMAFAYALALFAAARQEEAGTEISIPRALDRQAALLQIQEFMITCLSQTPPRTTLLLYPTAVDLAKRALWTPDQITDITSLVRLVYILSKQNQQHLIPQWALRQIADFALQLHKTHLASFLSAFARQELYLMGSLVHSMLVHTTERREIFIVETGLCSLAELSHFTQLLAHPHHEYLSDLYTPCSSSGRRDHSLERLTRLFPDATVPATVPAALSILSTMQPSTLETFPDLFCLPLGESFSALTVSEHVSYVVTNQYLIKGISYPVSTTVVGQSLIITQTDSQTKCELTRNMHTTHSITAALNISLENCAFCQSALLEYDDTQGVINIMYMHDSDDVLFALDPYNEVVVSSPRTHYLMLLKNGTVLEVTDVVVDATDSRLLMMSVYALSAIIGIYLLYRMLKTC
T4 sequence (looked up) 2: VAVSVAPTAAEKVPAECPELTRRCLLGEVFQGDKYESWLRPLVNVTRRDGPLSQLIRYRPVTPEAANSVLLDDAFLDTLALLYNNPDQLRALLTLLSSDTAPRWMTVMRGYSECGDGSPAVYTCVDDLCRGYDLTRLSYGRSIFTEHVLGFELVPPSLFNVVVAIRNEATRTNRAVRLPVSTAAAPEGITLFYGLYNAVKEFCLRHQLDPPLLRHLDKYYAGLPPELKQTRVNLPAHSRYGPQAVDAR
T4 sequence (looked up) 3: T1 sequence (looked up) 1
T4 sequence (looked up) 4: T1 sequence (looked up) 2

B1: human monoclonal antibody 8J16 (antibody, V domains shown)
VH: QVQLQESGPGLVKPSETLSLTCSVSGGFTSSYYWSWIRQAPGKGLEWIGYVYYGESTDYNPSLKSRATISIDTSKNQFSLKLSSVTAADTAVYYCAREVDKRGFDYWGQGALVTVSS
VL: EIVLTQSPGTLSLSPGERATLSCRASQSVSGGYLAWYQQEPGQAPRLVIYGASSRATGIPDRFSASGSGTDFTLTITRLEPEDFAVYYCQQYGRTPLTFGGGTKVEIK
B2: human monoclonal antibody 15D8 (antibody, V domains shown)
VH: EVQLVQSGAEVKKPGESLKISCQASGYSFTNYWIAWVRQMPGKGLEWMGIIYPGDSDIKYSPSFRGQVTISADKSISNAFLQWRSLRASDTAMYYCARHAIRGDGFDYWGQGTLVTVSS
VL: SYELTQPPSVSVSPGQTATITCSGDKLGEKYACWYQQKPGQSPVLVMYQDTKRPSGIPERFSGSNSGNTATLTISGTRAMDEADYYCQAWDTNTVIFGGGTKLTVL
B3: human monoclonal antibody 7I13 (antibody, V domains shown)
VH: QVQLVESGGGVVQPGRSLRLSCAASGFTFSNYGMHWVRQGPGKGLEWVAVISYDASSKYYTDSVQGRFTISRDNSKNTLFLQMNSLRGEDTAVYYCAKALRYLDWFLSDPFDYWGQGTLVTVSS
VL: EIVLTQSPGTLSLSPGERATLSCRASQSVSSDFLAWYQQKPGQAPRLLIYGASSRATGIPDRFSGSGSGTDFTLTISRLEPEDFAVYYCQQYAASPPFGQGTRLEIK
B4: human monoclonal antibody 8L13 (antibody, V domains shown)
VH: QVQLLESGGGVVQPGRSLRLSCAASGFTFSNYGMHWVRQAPGKGLEWVAVIWNDGSKKYYAESVKGRFTISRDNSKNTVYLQMNSLRAEDTAVYYCARDEGVQMVFAMPDYGMDVWGQGTTVTVSS
VL: SYELTQPPSVSVSPGQTASITCSGDKLGDKFACWYQQRPGQSPILVIYQDSKRPSGIPERFSGSNSGNTATLTIRGTQAMDEADYYCQAWDSSTAHYVFGTGTKVTVL
B5: human monoclonal antibody 10P3 (antibody, V domains shown)
VH: EVQLVESGGGLVRPGGSLRLSCAASGFTFHNYRMNWVRQAPGKGLEWVANIKQDGSEKSYVDSVRGRFTTSRDNSKNSLYLQINSLRAEDTAVYYCARGEGYTYGVVYSYSAMDVWGQGTTVIVSS
VL: SYELTQPPSVSVSPGQTARITCSGNVLPNQYASWYQQKPGQAPVLVIYKDTERPSGIPGRFSGSSSGTTVTLTISGVQAEDEADYYCQSADSSGADYVFGTGTKVTVL
B6: human monoclonal antibody 8I21 (antibody, V domains shown)
VH: LVELVESGGGVVQPGRSLRLSCAASGFTFSSDGMHWVRQSPGRGLEWVAFISSDGSTPYYADSVKGRFTISRDNSKNTLYLQMNSLRAEDTAMYFCAKDWALFRWLRTFDHWGQGTLVTVSS
VL: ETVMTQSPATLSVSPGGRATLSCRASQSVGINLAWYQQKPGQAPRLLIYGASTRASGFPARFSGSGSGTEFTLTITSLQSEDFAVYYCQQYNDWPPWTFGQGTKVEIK

Tests used:
Assay in all cases: cell-based or functional assay
[1] = biological target: T1, pUL128pUL130pUL131 (HEK293T cells …)
[2] = biological target: T2, pUL128 (HEK293T cells transfected with …)
[3] = biological target: T3, pUL130pUL131 (HEK293T cells transfected …)
[4] = biological target: T4, gHgLpUL128pUL130 (HEK293T cells …)

Binder | Log IC80, neutralization of HCMV infection of epithelial cells [1] | Log IC80, neutralization of HCMV infection of epithelial cells [3] | further results
B1 | -12.3 log IC80 (concentration unit not printed) | – | –
B2 | – | – | Log IC80, neutralization of HCMV infection of epithelial cells [2]: -11 log IC80 (concentration unit not printed)
B3 | -11 log IC80 (concentration unit not printed) | – | –
B4 | – | -11.6 log IC80 (concentration unit not printed) | –
B5 | – | -10.5 log IC80 (concentration unit not printed) | –
B6 | – | – | Log IC80, neutralization of HCMV infection of epithelial cells [4]: -9.5 log IC80 (concentration unit not printed)
